From US20160369010A1 (AstraZeneca / MedImmune, published 2016)
Where two headings read alike, the source gives them in different places.

Assays:
[1] = biological target: T1, Recombinant human Avi_PCSK9_Flag_His (human, UniProt Q8NBP7 31-692, biotinylated in the HTRF and LDL-R competition assays); experiment: HTRF epitope competition: unlabelled compound titrated against a DyLight 650-labelled anti-PCSK9 antibody for biotinylated human PCSK9; % specific binding [panel A]
T1 construct: In-house protein; also called human PCSK9; huPCSK9
Protocol: (§1) PCSK9 activity of each peptide-antibody fusions was assessed using Homogenous Time Resolved Fluorescence (HTRF) epitope competition assays.
(§2) For the assay all samples and reagents were prepared in assay buffer containing 1X Phosphate Buffered Saline, 0.1% BSA (Sigma A9576) and 0.4M Potassium Fluoride. Test samples of peptide-antibody fusions or control antibodies were prepared in 384 well polypropylene plates by 3-fold serial dilutions. […] Delta F% was then calculated using the following equation.

[2] = biological target: T1, Recombinant human Avi_PCSK9_Flag_His; experiment: binding ELISA: human PCSK9 coated at 10 ug/mL, compound at 100 ug/mL, detection with cryptate-labelled Fc-specific anti-human IgG; fluorescence counts
Protocol: (§3) After plate blocking with 1× Phosphate Buffered Saline, 3% skimmed milk, compounds were added at 100 ug/mL in PBS and incubated for 2 h at room temperature before washing. Bound compounds were detected using cryptate labelled Fc specific anti human IgG (Perkin Elmer) diluted at 100 ng/mL in Delfia Buffer (Perkin Elmer).

[3] = biological target: T1, Recombinant human Avi_PCSK9_Flag_His; experiment: HTRF epitope competition: unlabelled compound titrated against a DyLight 650-labelled anti-PCSK9 antibody for biotinylated human PCSK9; % specific binding [panel C]
Protocol: as §1, §2

[4] = biological target: T1, Recombinant human Avi_PCSK9_Flag_His; experiment: binding ELISA on coated human PCSK9 (10 ug/mL), compound at 100 ug/mL, detection with cryptate labelled Fc specific anti human IgG
Protocol: as §3

[5] = biological target: T1, Recombinant human Avi_PCSK9_Flag_His; experiment: HTRF epitope competition: unlabelled compound titrated against a DyLight 650-labelled anti-PCSK9 antibody for biotinylated human PCSK9; % specific binding [panel A]; remark: listed apart in the source
Protocol: as §1, §2

[6] = biological target: T1, Recombinant human Avi_PCSK9_Flag_His; experiment: HTRF epitope competition: unlabelled compound titrated against a DyLight 650-labelled anti-PCSK9 antibody for biotinylated human PCSK9; % specific binding
Protocol: as §1, §2

[7] = biological target: T1, Recombinant human Avi_PCSK9_Flag_His; experiment: HTRF epitope competition: unlabelled compound titrated against a DyLight 650-labelled anti-PCSK9 antibody for biotinylated human PCSK9; % specific binding [panel E]
Protocol: as §1, §2

[8] = biological target: T1, Recombinant human Avi_PCSK9_Flag_His; experiment: HTRF epitope competition: unlabelled compound titrated against a DyLight 650-labelled anti-PCSK9 antibody for biotinylated human PCSK9; % specific binding [panel F]
Protocol: as §1, §2

[9] = biological target: T1, Recombinant human Avi_PCSK9_Flag_His; experiment: HTRF epitope competition: unlabelled compound titrated against a DyLight 650-labelled anti-PCSK9 antibody for biotinylated human PCSK9; % specific binding [panel E]; remark: listed apart in the source
Protocol: as §1, §2

[10] = biological target: T1, Recombinant human Avi_PCSK9_Flag_His
[11] = biological target: T1, Recombinant human Avi_PCSK9_Flag_His; experiment: HTRF epitope competition: unlabelled compound titrated against a DyLight 650-labelled anti-PCSK9 antibody for biotinylated human PCSK9; % specific binding [panel F]; remark: listed apart in the source
Protocol: as §1, §2

[12] = biological target: T2, recombinant human B7-H1 (in house) (human, UniProt Q9NZQ7 19-238, limits assumed); experiment: binding ELISA on coated human B7-H1 (5 ug/mL), compound at 10 ug/mL, detection with cryptate labelled Fc specific anti human IgG
Protocol: (§4) Binding ELISA was performed by coating human B7-H1 (in house) at 5 ug/mL in 1× Phosphate Buffered Saline. After plate blocking with 1×Phosphate Buffered Saline, 3% skimmed milk, compounds were added at 10 ug/mL in PBS and incubated for 2 h at room temperature before washing.

[13] = biological target: T2, recombinant human B7-H1 (in house); experiment: binding ELISA on coated human B7-H1 (5 ug/mL), compound at 10 ug/mL, detection with cryptate labelled Fc specific anti human IgG; positive control
Protocol: as §4

T2 sequence (Q9NZQ7 19-238 limits assumed): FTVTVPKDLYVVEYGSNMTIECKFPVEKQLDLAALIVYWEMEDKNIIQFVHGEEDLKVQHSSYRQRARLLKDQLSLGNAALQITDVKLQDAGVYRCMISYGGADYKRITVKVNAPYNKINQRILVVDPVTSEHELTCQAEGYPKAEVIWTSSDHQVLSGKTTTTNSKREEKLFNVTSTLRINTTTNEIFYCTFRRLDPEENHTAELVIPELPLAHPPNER

B1: PC9#1 GLP-1 analogue light chain fusion (antibody, IgG1)
VH: QVQLVQSGAEVKKPGASVKVSCKASGYTFTSYYMHWVRQAPGQGLEWMGEISPFGGRTNYNEKFKSRVTMTRDTSTSTVYMELSSLRSEDTAVYYCARERPLYASDLWGQGTTVTVSS
VL: HGEGTFTSDVSSYLEEQAAKEFIAWLVKGGGGGGGSGGGGSGGGGSADIQMTQSPSSLSASVGDRVTITCRASQGISSALAWYQQKPGKAPKLLIYSASYRYTGVPSRFSGSGSGTDFTFTISSLQPEDIATYYCQQRYSLWRTFGQGTKLEIK
notes: IgG1-TM; peptide-linker at the N-terminus of VL; descriptive name; also called light chain peptide antibody fusion of PC9#1
[1]
  IC50 (read off the curve): ~0.1 nM

B2: HS9_DSB7_V19A_L2 (antibody, IgG1)
VH: QVQLVQSGAEVKKPGASVKVSCKASGYTFTSYYMHWVRQAPGQGLEWMGEISPSGGSTSYNQKFQGRVTMTRDTSTSTVYMELSSLRSEDTAVYYCARERPLYASDLWGQGTTVTVSS
light: not shown
[2]
  binding result: binds

B3: HS9_DSB7_V19A_L0 (antibody, IgG1)
VH: QVQLVQSGAEVKKPGASVKVSCKASGYTFTSYYMHWVRQAPGQGLEWMGEISPSGGSTSYNQKFQGRVTMTRDTSTSTVYMELSSLRSEDTAVYYCARERPLYASDLWGQGTTVTVSS
light: not shown
notes: VH see m27; IgG1-TM
[2]
  binding result: binds

B4: HS9_DSB7_V19A_L1 (antibody, IgG1)
VH: QVQLVQSGAEVKKPGASVKVSCKASGYTFTSYYMHWVRQAPGQGLEWMGEISPSGGSTSYNQKFQGRVTMTRDTSTSTVYMELSSLRSEDTAVYYCARERPLYASDLWGQGTTVTVSS
light: not shown
notes: VH see m27; IgG1-TM
[2]
  binding result: binds

B5: PC9#3 GLP-1 analogue light chain fusion (antibody, IgG1)
VH: EVQLVESGGGLVQPGGSLRLSCAASGFTFNNYAMNWVRQAPGKGLDWVSTISGSGGTTNYADSVKGRFIISRDSSKHTLYLQMNSLRAEDTAVYYCAKDSNWGNFDLWGRGTLVTVSS
VL: HGEGTFTSDVSSYLEEQAAKEFIAWLVKGGGGGGGSGGGGSGGGGSADIVMTQSPDSLAVSLGERATINCKSSQSVLYRSNNRNFLGWYQQKPGQPPNLLIYWASTRESGVPDRFSGSGSGTDFTLTISSLQAEDVAVYYCQQYYTTPYTFGQGTKLEIK
notes: IgG1-TM; descriptive name; also called light chain peptide antibody fusion of PC9#3
[3]
  IC50 (read off the curve): ~0.4 nM

B6: PC9#3_DSB7_V19A (antibody, IgG1)
VH: EVQLVESGGGLVQPGGSLRLSCAASGFTFNNYAMNWVRQAPGKGLDWVSTISGSGGTTNYADSVKGRFIISRDSSKHTLYLQMNSLRAEDTAVYYCAKDSNWGNFDLWGRGTLVTVSS
VL: HGEGTFTSDLSKQMEEECARLFIEWLKNGGPSSGAPPPGCGGGGGSGGGGSGGGGSADIVMTQSPDSLAVSLGERATINCKSSQSVLYRSNNRNFLGWYQQKPGQPPNLLIYWASTRESGVPDRFSGSGSGTDFTLTISSLQAEDVAVYYCQQYYTTPYTFGQGTKLEIK
notes: IgG1-TM
[4]
  binding result: binds

B7: PC9#1 GLP-1 analogue heavy chain fusion (antibody, IgG1)
VH: HGEGTFTSDVSSYLEEQAAKEFIAWLVKGGGGGGGSGGGGSGGGGSAQVQLVQSGAEVKKPGASVKVSCKASGYTFTSYYMHWVRQAPGQGLEWMGEISPFGGRTNYNEKFKSRVTMTRDTSTSTVYMELSSLRSEDTAVYYCARERPLYASDLWGQGTTVTVSS
VL: DIQMTQSPSSLSASVGDRVTITCRASQGISSALAWYQQKPGKAPKLLIYSASYRYTGVPSRFSGSGSGTDFTFTISSLQPEDIATYYCQQRYSLWRTFGQGTKLEIK
notes: IgG1-TM; peptide-linker at the N-terminus of VH; also called heavy chain peptide antibody fusion of PC9#1
[5]
  IC50 (read off the curve): ~0.06 nM

B8: PC9#7 GLP-1 analogue heavy chain fusion (antibody, IgG1)
VH: HGEGTFTSDVSSYLEEQAAKEFIAWLVKGGGGGGGSGGGGSGGGGSAQVQLVQSGAEVKKPGESLKISCKGSGYSFTNYWISWVRQMPGKGLEWMGIIYPGDSYTNYSPSFQGQVTISADKSISTAYLQWSSLKASDTAMYYCARDYWYKPLFDIWGQGTLVTVSS
VL: not shown
notes: IgG1-TM; descriptive name; also called heavy chain peptide antibody fusion of PC9#7
[6]
  IC50 (read off the curve): ~0.1 nM

B9: PC9#5 GLP-1 analogue light chain fusion (antibody, IgG1, V domains shown)
VH: EMQLVESGGGLVQPGGSLRLSCAASGFTFSSHWMKWVRQAPGKGLEWVANINQDGSEKYYVDSVKGRFTISRDNAKNSLFLQMNSLRAEDTAVYYCARDIVLMVYDMDYYYYGMDVWGQGTTVTVSS
VL: not shown
notes: IgG1-TM; descriptive name; also called light chain peptide antibody fusion of PC9#5
[7]
  IC50 (read off the curve): ~6 nM

B10: PC9#5_DSB7_V19A (antibody, IgG1, V domains shown)
VH: EMQLVESGGGLVQPGGSLRLSCAASGFTFSSHWMKWVRQAPGKGLEWVANINQDGSEKYYVDSVKGRFTISRDNAKNSLFLQMNSLRAEDTAVYYCARDIVLMVYDMDYYYYGMDVWGQGTTVTVSS
VL: not shown
notes: IgG1-TM
[4]
  binding result: binds

B11: PC9#6 GLP-1 analogue light chain fusion (antibody, IgG1)
VH: QVQLVQSGAEVKKPGSSVKVSCKASGGTFNSHAISWVRQAPGQGLEWMGGINPILGIANYAQKFQGRVTITADESTSTAYMELSSLRSEDTAVYYCARHYEIQIGRYGMNVYYLMYRFASWGQGTLVTVSS
VL: HGEGTFTSDVSSYLEEQAAKEFIAWLVKGGGGGGGSGGGGSGGGGSADIQMTQSPSSLSASVGDRVTITCRASQGIRSALNWYQQKPGKAPKLLIYNGSTLQSGVPSRFSGSGSGTDFTLTISSLQPEDFAVYYCQQFDGDPTFGQGTKVEIK
notes: IgG1-TM; descriptive name; also called light chain peptide antibody fusion of PC9#6
[8]
  binding result: binds

B12: PC9#5 GLP-1 analogue heavy chain fusion (antibody, IgG1)
VH: HGEGTFTSDVSSYLEEQAAKEFIAWLVKGGGGGGGSGGGGSGGGGSAEMQLVESGGGLVQPGGSLRLSCAASGFTFSSHWMKWVRQAPGKGLEWVANINQDGSEKYYVDSVKGRFTISRDNAKNSLFLQMNSLRAEDTAVYYCARDIVLMVYDMDYYYYGMDVWGQGTTVTVSS
VL: not shown
notes: IgG1-TM; descriptive name; also called heavy chain peptide antibody fusion of PC9#5
[9]
  IC50 (read off the curve): ~0.1 nM

B13: PC9#7 GLP-1 analogue light chain fusion (antibody)
VH: QVQLVQSGAEVKKPGESLKISCKGSGYSFTNYWISWVRQMPGKGLEWMGIIYPGDSYTNYSPSFQGQVTISADKSISTAYLQWSSLKASDTAMYYCARDYWYKPLFDIWGQGTLVTVSS
VL: HGEGTFTSDVSSYLEEQAAKEFIAWLVKGGGGGGGSGGGGSGGGGSADIVMTQSPDSLAVSLGERATINCRSSQSVLYSSNNKNYLAWYQQKPGQPPKLLIYWASTRESGVPDRFSGSGSGTDFTLTISSLQAEDVAVYYCQQYSSFPITFGQGTKVEIK
[10]
  IC50 (read off the curve): ~1 nM

B14: PC9#6 GLP-1 analogue heavy chain fusion (antibody, IgG1)
VH: HGEGTFTSDVSSYLEEQAAKEFIAWLVKGGGGGGGSGGGGSGGGGSAQVQLVQSGAEVKKPGSSVKVSCKASGGTFNSHAISWVRQAPGQGLEWMGGINPILGIANYAQKFQGRVTITADESTSTAYMELSSLRSEDTAVYYCARHYEIQIGRYGMNVYYLMYRFASWGQGTLVTVSS
VL: DIQMTQSPSSLSASVGDRVTITCRASQGIRSALNWYQQKPGKAPKLLIYNGSTLQSGVPSRFSGSGSGTDFTLTISSLQPEDFAVYYCQQFDGDPTFGQGTKVEIK
notes: IgG1-TM; descriptive name; also called heavy chain peptide antibody fusion of PC9#6
[11]
  IC50 (read off the curve): ~0.6 nM

B15: Fusion 2.7A4 DSB7 V19A (antibody)
VH: EVQLVESGGGLVKPGGSLRLSCAASGFTFSTYSMNWVRQAPGKGLEWVSSISSSGDYIYYADSVKGRFTISRDNAKNSLYLQMNSLRAEDTAVYYCARDLVTSMVAFDYWGQGTLVTVSS
VL: HGEGTFTSDLSKQMEEECARLFIEWLKNGGPSSGAPPPGCGGGGGSGGGGSGGGGSASYELTQPPSVSVSPGQTARITCSGDALPQKYVFWYQQKSGQAPVLVIYEDSKRPSGIPERFSGSSSGTMATLTISGAQVEDEADYYCYSTDRSGNHRVFGGGTKLTVL
notes: Peptide-linker on the light chain of the anti-B7-H1 antibody
[12]
  binding result: binds

B16: anti-B7-H1 antibody 2.7A4 (antibody, V domains shown)
VH: EVQLVESGGGLVKPGGSLRLSCAASGFTFSTYSMNWVRQAPGKGLEWVSSISSSGDYIYYADSVKGRFTISRDNAKNSLYLQMNSLRAEDTAVYYCARDLVTSMVAFDYWGQGTLVTVSS
VL: SYELTQPPSVSVSPGQTARITCSGDALPQKYVFWYQQKSGQAPVLVIYEDSKRPSGIPERFSGSSSGTMATLTISGAQVEDEADYYCYSTDRSGNHRVFGGGTKLTVL
[13]
  binding result: binds
